Values joined by “and” are separate entries in the source; they are usually repeats but may differ in a detail not shown here. Equal values may be shown once.
Tests used:
Assay in all cases: cell-based or functional assay
[1] = target: whole C. atrox venom (SVMP proteolytic activity)
MDC-4 (Crotalus atrox) = MDC-4 (Crotalus atrox) (UniProt Q90282)
[2] = target: whole C. atrox venom (SVMP proteolytic activity); remark: listed apart in the source

Sequence of UniProt Q90282 (Q90282 190-609 limits assumed): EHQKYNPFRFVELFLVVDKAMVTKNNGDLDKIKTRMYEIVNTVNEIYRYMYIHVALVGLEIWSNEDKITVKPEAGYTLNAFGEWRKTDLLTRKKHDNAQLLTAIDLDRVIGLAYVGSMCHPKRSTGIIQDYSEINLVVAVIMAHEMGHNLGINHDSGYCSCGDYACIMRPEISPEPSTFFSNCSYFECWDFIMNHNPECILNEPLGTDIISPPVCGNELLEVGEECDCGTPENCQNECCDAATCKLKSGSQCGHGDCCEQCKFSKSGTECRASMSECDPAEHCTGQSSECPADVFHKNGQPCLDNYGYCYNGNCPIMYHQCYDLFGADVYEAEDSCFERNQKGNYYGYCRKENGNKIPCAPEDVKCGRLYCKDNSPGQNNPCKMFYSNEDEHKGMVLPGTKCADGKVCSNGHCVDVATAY

Question: With “CroFab antivenom (crotalidae polyvalent immune fab ovine)” as the molecule, how does the weight of CroFab relative to FETUA-3 for approximately 50% neutralization of whole venom SVMP activity [1] read?
Answer: 18 fold

Question: And the amount for ˜50% neutralization of 2 µg MDC-4 proteolysis of Azocoll (MDC-4 (Crotalus atrox))?
Answer: 12.1 µg

Question: What about the weight of CroFab relative to FETUA-3 for ˜50% neutralization of MDC-4 (MDC-4 (Crotalus atrox)) of the same molecule?
Answer: 16 fold

B1: C. atrox FETUA-5 (recombinant, tag-free) (protein)
chain: YMVREEDLNCNSKAAKYRADQAVRYINEHNLHGYKQALNIIKTIRLLPSDGLLVVIYLKLNLLETECHVLDPTPVENCTVRQQNNHAVETDCDVKVIYNIETFKDEFLVKCHSTPGSVEKILQDCPKCPILLSLSDPHVVDSVEYVLNKHNEQLSGHVYEVLEISRGQHKYEPEAFYVEFAIVEVNCTAQEAHDDHHHCHPNTAGENHIAFCRATVFRSYASLEKPKDEKFESDCVILHVKEGHAHSHLIEHHTGKHSTSPGHNSTVLNLAHSHNHTSASHESHSHEHVMEVPVAVANREDPTDIPHHHTPSVDGCPGKVLHFKL
Question: With B1 as the molecule, how does the inhibition of whole venom proteolysis of Azocoll collagen substrate (10 µg venom) [2] read?
Answer: 20 µg

B2: C. atrox FETUA-3 (recombinant, tag-free) (protein)
chain: FQLAGNMDCNTKGTKDWADIGVRYINEHKLHGYKQALNIIKIFRLLPSDGRSVIFHFKLNLLETECHVLDPTPLENCTVRQQNNHAVEMDCNVRIIHDIATFEDEVFVKCNSTPDSVENVRRNCPKCPILLPPNDPHVIDSVEYVLNKHNEKLSGHIYEVLEISRGQHKYEPEAFYVEFAIVEVNCTAEEAHDDHHDCHPNTDGENHIGFCRATVFRSHASLEKPKEEMFESDCVILHVKKGHAYSHLIEHHVGKYNTSPGRNSTDECVVQCPVAFVNKEVPKDISDHDTPPVEGCPGKALHFQL
Question: For B2, which inhibition of whole venom proteolysis of Azocoll collagen substrate (10 µg venom) [2] is on record?
Answer: 2.5 µg and 5 µg

— US20240190923A1
